Data: PMC3390373

Target: FLAG-tagged C-terminally truncated RPS0A (residues 1–197) (S. cerevisiae) (UniProt P32905)
Assay: co-IP; WCE of H2880 wt cells overexpressing wt or C-terminally truncated RPS0A-FLAG; anti-FLAG M2 affinity matrix, 60 min, 4°C, buffer A200T (200 mM KCl, 20 mM Tris pH 8, 5 mM Mg acetate, 1 mM DTT, 0.2% Triton X-100); whole 40S subunits with their associated eIFs are recovered through the tagged RPS0A; Western blot, normalised to ASC1 (Figure 5B)

UniProt P32905, sequence (P32905 1-197): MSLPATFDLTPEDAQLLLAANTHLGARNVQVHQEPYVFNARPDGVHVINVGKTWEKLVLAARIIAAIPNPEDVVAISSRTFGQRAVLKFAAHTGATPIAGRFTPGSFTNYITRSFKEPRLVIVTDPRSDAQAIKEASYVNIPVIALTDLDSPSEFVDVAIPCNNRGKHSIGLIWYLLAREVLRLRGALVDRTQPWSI

eIF2 (from UniProt P32481 1-527) (complex)
percent reduction of the co-purified amount against wt RPS0A-FLAG: 70%
